Results reported in patent publication US6942981.
Ends that are not written are not given here. * marks the point of attachment. Biotin = O=C1N[C@H]2[C@H](CS[C@H]2CCCCC(=O)*)N1

T1: GST-CASK PDZ domain fusion protein (mouse, UniProt O14936 485-575 (human entry))
T1 sequence: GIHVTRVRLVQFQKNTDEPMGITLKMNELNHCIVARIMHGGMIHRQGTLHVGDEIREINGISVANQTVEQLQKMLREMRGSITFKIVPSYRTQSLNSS

T2: GST-LIMK2 PDZ domain fusion protein (human, UniProt P53671 147-237)
T2 construct: also called human LIM domain kinase 2; not shown: glutathione S-transferase (GST) encoded by pGEX-3X
T2 sequence: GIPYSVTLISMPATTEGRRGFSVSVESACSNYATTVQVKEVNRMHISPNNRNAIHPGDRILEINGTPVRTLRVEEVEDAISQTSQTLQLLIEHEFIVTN

T3: GST-MPP2 PDZ domain fusion protein
T3 construct: also called maguk p55 subfamily member 2 (DLG2); MMP2; not shown: glutathione S-transferase (GST) encoded by pGEX-3X
T3 chain: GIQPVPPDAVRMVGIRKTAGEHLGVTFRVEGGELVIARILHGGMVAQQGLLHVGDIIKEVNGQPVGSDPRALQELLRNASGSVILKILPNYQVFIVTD

T4: GST-DVL1 PDZ domain fusion protein (human)
T4 construct: also called human dishevelled segment polarity protein homolog; not shown: glutathione S-transferase (GST) encoded by pGEX-3X
T4 chain: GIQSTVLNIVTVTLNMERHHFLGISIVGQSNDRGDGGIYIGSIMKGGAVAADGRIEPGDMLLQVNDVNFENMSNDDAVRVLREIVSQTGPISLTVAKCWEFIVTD

T5: GST-MINT3 PDZ domain fusion protein (human)
T5 construct: also called human MINT3; not shown: glutathione S-transferase (GST) encoded by pGEX-3X
T5 chain: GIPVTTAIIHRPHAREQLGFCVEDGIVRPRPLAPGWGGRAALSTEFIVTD

T6: GST-TAX2 PDZ domain fusion protein (human, UniProt O14908 129-216)
T6 construct: not shown: glutathione S-transferase (GST) encoded by pGEX-3X
T6 chain: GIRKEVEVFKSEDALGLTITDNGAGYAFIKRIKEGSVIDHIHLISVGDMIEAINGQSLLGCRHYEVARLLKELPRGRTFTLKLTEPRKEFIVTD

T7: GST-NeDLG PDZ domains 1-2 fusion protein (Mus musculus (Mouse), UniProt P70175 147-332)
T7 construct: also called NeDLG1; not shown: glutathione S-transferase (GST) encoded by pGEX-3X
T7 chain: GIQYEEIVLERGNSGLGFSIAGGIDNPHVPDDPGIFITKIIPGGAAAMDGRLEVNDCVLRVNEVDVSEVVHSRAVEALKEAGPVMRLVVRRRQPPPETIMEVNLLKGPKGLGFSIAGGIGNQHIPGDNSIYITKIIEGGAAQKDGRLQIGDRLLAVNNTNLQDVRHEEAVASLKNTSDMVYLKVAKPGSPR

T8: GST-SYN1a (alpha1-syntrophin) PDZ domain fusion protein (Homo sapiens (Human), UniProt Q13424 84-179)
T8 construct: also called SYN 1 α; not shown: glutathione S-transferase (GST) encoded by pGEX-3X
T8 sequence: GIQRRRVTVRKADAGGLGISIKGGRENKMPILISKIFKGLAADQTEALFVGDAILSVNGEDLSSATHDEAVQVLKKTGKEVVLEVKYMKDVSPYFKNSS

T9: GST-prIL16 PDZ domains 1-2 fusion protein (Homo sapiens (Human), UniProt Q14005 1110-1325)
T9 construct: also called putative interleukin 16 precursor; not shown: glutathione S-transferase (GST) encoded by pGEX-3X
T9 sequence: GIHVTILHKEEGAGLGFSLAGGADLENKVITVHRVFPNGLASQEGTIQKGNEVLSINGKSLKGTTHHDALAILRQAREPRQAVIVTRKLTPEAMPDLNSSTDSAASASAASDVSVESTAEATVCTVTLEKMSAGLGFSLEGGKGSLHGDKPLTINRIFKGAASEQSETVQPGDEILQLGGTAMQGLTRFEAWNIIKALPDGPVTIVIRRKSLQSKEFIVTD

T10: GST-MPP1 PDZ domain fusion protein (Homo sapiens (Human), UniProt Q00013 67-152)
T10 construct: also called 55 Kd erythrocyte membrane protein; not shown: glutathione S-transferase (GST) encoded by pGEX-3X
T10 sequence: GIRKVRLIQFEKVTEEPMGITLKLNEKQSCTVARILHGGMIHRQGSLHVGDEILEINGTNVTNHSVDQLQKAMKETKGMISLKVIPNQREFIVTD


Legend:
[1] = molecular target: T1, GST-CASK PDZ domain fusion protein; assay: A/G assays
[2] = molecular target: T2, GST-LIMK2 PDZ domain fusion protein; assay: A/G assays
[3] = molecular target: T3, GST-MPP2 PDZ domain fusion protein; assay: A/G assays
[4] = molecular target: T4, GST-DVL1 PDZ domain fusion protein; assay: A/G assays
[5] = molecular target: T5, GST-MINT3 PDZ domain fusion protein; assay: A/G assays
[6] = molecular target: T6, GST-TAX2 PDZ domain fusion protein; assay: A/G assays
[7] = molecular target: T7, GST-NeDLG PDZ domains 1-2 fusion protein; assay: A/G assays
[8] = molecular target: T8, GST-SYN1a (alpha1-syntrophin) PDZ …; assay: A/G assays
[9] = molecular target: T9, GST-prIL16 PDZ domains 1-2 fusion …; assay: G assay
[10] = molecular target: T10, GST-MPP1 PDZ domain fusion protein; assay: G assay
[11] = molecular target: T10, GST-MPP1 PDZ domain fusion protein; assay: A/G assays
[12] = molecular target: T3, GST-MPP2 PDZ domain fusion protein; assay: A assay
[13] = molecular target: T7, GST-NeDLG PDZ domains 1-2 fusion protein; assay: G assay

Row | Binder | binding result [1] | binding result [2] | binding result [3] | binding result [4] | binding result [5] | binding result [6] | binding result [7] | binding result [8] | binding result [9] | binding result [10] | binding result [11] | binding result [12] | binding result [13]
1 | Biotin-PKQANGGAYQKPTKQEEFYA [CD138 (syndecan) C-terminal peptide AA18L] | no binding | no binding | no binding | no binding | no binding | no binding | no binding | no binding |  |  |  |  | 
2 | Biotin-QFMTADETRNLQNVDMKIGV [CD44 (long form) C-terminal peptide AA9L] |  | no binding | no binding | no binding | no binding | no binding | no binding | no binding | binds | binds |  |  | 
3 | Biotin-QGDPALQDAGDSSRKEYFI (also called GC) [Glycophorin C C-terminal peptide AA37L] |  | no binding |  | no binding | no binding | no binding |  | no binding |  |  | no binding | binds | binds
